B1: C8orf76 (parent)
chain: LYLQLAICSSLQNLEKTIFCLQKL
B2: ZNF449 (parent)
chain: YRHQRLHTGERPYECTVCKKRFTR

Variants of: B1
Assay: protein stability index of a GFP-peptide fusion (GPS, HEK-293T) (PSI 1-6); higher = more stable
Settings: c terminus: a fixed tail appended
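Also: lentivirally expressed fusions sorted by FACS into six bins by GFP to DsRed ratio, PSI derived from sequencing read proportions per bin multiplied by bin number.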

Protein stability index, by site and new letter:
L11: Q 2.35 | I 2.28 | F 1.39 | E 4.55 | D 2.17 | K 3.11 | P 5.02 | T 1.82 | C 1.8 | M 3.61 | W 1.77
L5: T 2.24 | W 2.82 | V 2.05 | P 2.23 | H 1.67 | N 3.62 | E 1.79 | C 1.79 | G 3.09 | Y 2.57 | K 1.36 | R 1.92 | F 3.72 | A 1.65
E15: G 1.69 | W 3.01 | P 3.75 | T 1.99 | C 2.82 | R 2.63 | V 3.25 | I 2.49 | F 4.35 | L 4.03 | D 1.75 | Q 3.27 | M 3.11
K16: N 2.47 | Y 2.26 | C 4.77 | S 2.67 | T 4.26 | P 2.32 | Q 3.17 | I 2.44
L14: P 2.32 | E 1.9 | D 3.85 | G 2.24 | A 2.33 | K 2.9 | H 2.93 | T 1.65 | M 2.22 | I 2.96 | N 2.84
L1: I 2.57 | N 3.07 | E 3.38 | S 3.44 | D 4.64 | T 2.99 | P 3.08 | V 2.57
S10: T 2.38 | K 2.11 | N 3.36 | P 2.52 | H 3.71 | F 4.67 | A 2.36 | L 2.99 | V 3.44
C8: M 4.39 | G 3.48 | H 2.52 | E 3.54 | N 3.14 | W 2.12 | Y 2.62 | T 2.71 | V 3.6 | R 3.1 | I 1.69 | P 2.57 | L 2.92 | S 3.03 | F 1.94
Y2: W 3.02 | K 2.42 | P 1.62 | T 2.08 | C 1.42 | E 3.3 | S 2.26 | H 3.59 | D 1.07 | I 3.14 | N 2.69 | V 3.11 | R 4.79 | F 2.5
L3: E 2.56 | S 3.2 | P 1.81 | V 3.09 | A 3.31 | N 1.34 | C 4.32 | T 4.08 | R 4.15 | D 2.73
A6: C 2.72 | R 3.17 | I 2.16 | W 1.73 | T 3.04 | H 4.38 | L 2.52 | N 2.71 | G 1.73 | M 3.66 | P 2.9 | Y 2.03 | V 1.62 | Q 2.63
N13: Y 2.21 | F 2.51 | D 3.49 | A 2.98 | S 3.71 | I 1.93 | R 3.01 | C 2.25 | M 3.43 | P 3.23
T17: H 2.34 | C 2.55 | L 4 | M 3.56 | D 2.31 | G 4.96 | F 3.63
Q12: N 2.07 | V 2.3 | M 3.9 | W 3.78 | G 2.58 | E 2.29 | K 3.08 | A 2.38 | P 2.52 | F 2.75 | H 3.42 | T 4.52
S9: G 3.03 | A 3.6 | I 2.34 | V 3.45 | L 2.28 | D 2.72 | K 1.75 | M 4.15 | N 4.23 | W 1.02
I7: T 2.36 | S 1.26 | M 2.24 | H 2.71 | G 3.86 | N 2.23 | Y 3.21
Q4: A 1.92 | S 4.32 | D 2.74 | F 2.22 | R 4.03 | W 1.41 | K 2.11 | T 2.97 | V 3.48 | E 1.65 | C 5.01 | I 2.44 | M 3.43

Variants of: B2
Assay: as above
Settings: c terminus: a fixed tail appended

Protein stability index of substitutions, site by site:
R24: L 2.39 | I 2.14 | H 2.11 | C 2.65 | S 2.3 | M 2.68
R21: T 1.92 | P 2.46 | F 2.1 | A 2.06 | L 2.02
R11: E 2.08 | P 2.33 | D 2.67 | N 2.1 | L 2.09
E14: N 2.7 | P 2.93 | H 2.52 | R 2.6
E10: G 2.24 | T 2.48 | F 2.35 | M 1.91 | S 2.62 | N 2.6
R5: V 2.19 | T 1.69 | W 2.29 | P 2.08 | C 3.51 | L 2.15
L6: A 2.77 | V 2.17 | M 2.37 | S 2.38 | I 2.37 | F 2.17 | G 2.61 | C 3.06 | T 2.51
Y13: I 2.09 | K 2.25 | T 2.51 | G 2.55 | C 3.74 | L 2.08
H3: L 1.52 | P 2.68 | M 2.14 | V 2.03 | E 1.83 | Y 1.81 | Q 2.21 | R 2.44
Y1: L 2.83 | W 1.97 | A 3.22 | K 2.77 | F 1.65 | S 3.05
G9: H 2.81 | V 2.07 | N 2.54 | I 2.4 | C 3.86
T23: L 2.71 | V 2.36 | Q 2.16 | D 2.21 | S 2.09
Q4: T 2.64 | C 2.99 | L 1.78 | S 2.35 | N 2.24 | E 2.3 | G 2.34
F22: R 3.19 | I 2.76 | C 3.46
P12: F 2.19 | I 2.1 | Q 2.2 | A 2.54 | H 2.26
H7: R 2.24 | D 1.92 | N 2.64 | G 2.14 | A 2.17 | K 2.75 | Y 1.61 | Q 2.53
K20: V 2.3 | C 2.2 | P 2.69 | T 2.03 | L 1.73 | A 1.95
R2: S 2.76 | Q 2.12 | F 1.88 | G 2.92 | V 3.09 | W 1.57
C18: D 3.24 | F 2.38 | T 3.6 | H 3.48 | A 3.39 | L 2.6 | S 3.38 | E 3.48 | N 3.43 | Q 3.27
V17: F 2.37 | Q 2.47 | S 2.5 | Y 2.2 | M 2.21
K19: L 2.2 | H 1.55 | W 2.07 | I 2.58 | S 1.74 | E 2.01 | T 2.77 | R 2.34
T8: E 2.24 | H 2.7 | D 2.27 | I 2.41
C15: L 3.11 | D 3.51 | M 2.98 | Y 3.07 | V 2.85 | A 3.02 | F 3.02
T16: W 2.03 | C 2.09 | I 2.34 | H 2.24 | S 2.39 | Y 2.75 | D 2.52 | F 2.14

— the supplement of paper PMC10567573
